# Target: RBD重组蛋白 (SARS-CoV-2 S蛋白RBD区, 毕赤酵母GJK0601表达) (SARS-CoV-2)
binder,measurement,value
"人鼠嵌合全抗体mhC3 (antibody, V domains shown, also called mhC3抗体; C3 (图5、图6)) VH: EVQLVESGGDLVKPGGSLKLSCAASGFTFNTYAMNWVRQTPGKGLEWVARIRSKSNNYATYYADSVKDRFTISRDDSQSMLYLQMNNLKTEDTAMYYCVTPYYGNYADWFTYWGQGTSVTVSS VL: not shown",EC50,0.0129 nM

# From patent publication CN111995674A (INST MILITARY MEDICINE ACADEMY MILITARY SCIENCES PLA, dated 2020)
